# Data from US20140206628A1 (University of Washington, published 2014).
# B1: HB36.3 (Asp47Ser, Ala60Val) (designed binder)
# chain: MSNAMDGQQLNRLLLEWIGAWDPFGLGKDAYDVEAEAVLQAVYETESAFDLAMRIMWIYVFAFNRPIPFPHAQKLARRLLELKQAASSPLPLE
# Biological target: A/WSN/1933 (H1N1) hemagglutinin (Influenza A virus A/WSN/1933 (H1N1))
# Experiment: gel filtration
binder,measurement,value
B1,binding result,binds
